Measured values taken from US8859492.
Where no end group is shown, it is not given here. [ ]: non-standard residue; d: D form. Cha = N[C@@H](CC1CCCCC1)C(=O)O

What was measured:
[1] = target: T1, S. aureus sortase A (S. aureus), Q2FV99; assay: cell-based or functional assay
T1 chain: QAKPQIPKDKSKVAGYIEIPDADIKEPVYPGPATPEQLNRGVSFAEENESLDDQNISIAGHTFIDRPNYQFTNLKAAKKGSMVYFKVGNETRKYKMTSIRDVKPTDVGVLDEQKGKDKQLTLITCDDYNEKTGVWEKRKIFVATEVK

[2] = target: HCV protease (hepatitis C virus); assay: apparent binding affinity; method not described
[3] = target: HCV protease (hepatitis C virus); assay: binding/inhibition curve of FIG. 1 (left); method not described
[4] = target: HCV protease (hepatitis C virus); assay: cell-based or functional assay
Cu-GGH-lisinopril = target: T2, Cu-GGH-lisinopril
T2 chain: GGH

[Cu-GGH]^1- = target: T3, [Cu-GGH]^1-
T3 chain: GGH

Ni-GGH-lisinopril = target: T4, Ni-GGH-lisinopril (not fully specified)
T4 chain: GGH

Co-GGH-lisinopril = target: T5, Co-GGH-lisinopril
T5 chain: GGH

B1: Cu-… (SEQ ID NO: 105) (peptide)
peptide: GGHGLPETG
modifications: not checked
activity for catalyst concentration of 1 µM [1]: 0.012

B2: Cu-GGHGLPET (SEQ ID NO: 104) (peptide)
peptide: GGHGLPET
modifications: not checked
activity for catalyst concentration of 1 µM [1]: 0.027

B3: Cu-GGHLPETG (SEQ ID NO: 103) (peptide)
peptide: GGHLPETG
modifications: not checked
activity for catalyst concentration of 1 µM [1]: 0.017

B4: Cu-GGHGDeLI(Cha)C-CO2^- (peptide)
peptide: GGHGD[dE]LI[Cha]C-OH
modifications: also: Cu complex
Ka [2]: 2e+06 M⁻¹ | Ki [3]: 0.5 µM | kinact [4]: 0.0014 min⁻¹ | rate constant for inactivation kinact, in the presence of ascorbate/O2 [4]: < 0.083 h⁻¹

B5: Cu-GGHGDeLI(Cha)T (peptide)
peptide: GGHGD[dE]LI[Cha]T
modifications: also: Cu complex
Ka [2]: 33000 M⁻¹ | kinact [4]: 0.042 min⁻¹

B6: Recombinant human somatic ACE (sACE-1: Leu30-Leu1261, with C-terminal His tag) (protein)
chain: LDPGLQPGNFSADEAGAQLFAQSYNSSAEQVLFQSVAASWAHDTNITAENARRQEEAALLSQEFAEAWGQKAKELYEPIWQNFTDPQLRRIIGAVRTLGSANLPLAKRQQYNALLSNMSRIYSTAKVCLPNKTATCWSLDPDLTNILASSRSYAMLLFAWEGWHNAAGIPLKPLYEDFTALSNEAYKQDGFTDTGAYWRSWYNSPTFEDDLEHLYQQLEPLYLNLHAFVRRALHRRYGDRYINLRGPIPAHLLGDMWAQSWENIYDMVVPFPDKPNLDVTSTMLQQGWNATHMFRVAEEFFTSLELSPMPPEFWEGSMLEKPADGREVVCHASAWDFYNRKDFRIKQCTRVTMDQLSTVHHEMGHIQYYLQYKDLPVSLRRGANPGFHEAIGDVLALSVSTPEHLHKIGLLDRVTNDTESDINYLLKMALEKIAFLPFGYLVDQWRWGVFSGRTPPSRYNFDWWYLRTKYQGICPPVTRNETHFDAGAKFHVPNVTPYIRYFVSFVLQFQFHEALCKEAGYEGPLHQCDIYRSTKAGAKLRKVLQAGSSRPWQEVLKDMVGLDALDAQPLLKYFQPVTQWLQEQNQQNGEVLGWPEYQWHPPLPDNYPEGIDLVTDEAEASKFVEEYDRTSQVVWNEYAEANWNYNTNITTETSKILLQKNMQIANHTLKYGTQARKFDVNQLQNTTIKRIIKKVQDLERAALPAQELEEYNKILLDMETTYSVATVCHPNGSCLQLEPDLTNVMATSRKYEDLLWAWEGWRDKAGRAILQFYPKYVELINQAARLNGYVDAGDSWRSMYETPSLEQDLERLFQELQPLYLNLHAYVRRALHRHYGAQHINLEGPIPAHLLGNMWAQTWSNIYDLVVPFPSAPSMDTTEAMLKQGWTPRRMFKEADDFFTSLGLLPVPPEFWNKSMLEKPTDGREVVCHASAWDFYNGKDFRIKQCTTVNLEDLVVAHHEMGHIQYFMQYKDLPVALREGANPGFHEAIGDVLALSVSTPKHLHSLNLLSSEGGSDEHDINFLMKMALDKIAFIPFSYLVDQWRWRVFDGSITKENYNQEWWSLRLKYQGLCPPVPRTQGDFDPGAKFHIPSSVPYIRYFVSFIIQFQFHEALCQAAGHTGPLHKCDIYQSKEAGQRLATAMKLGFSRPWPEAMQLITGQPNMSASAMLSYFKPLLDWLRTENELHGEKLGWPQYNWTPNSARSEGPLPDSGRVSFLGLDLDAQQARVGQWL
second order rate constant for cleavage of full length sACE-1 (SDS-PAGE), H2O2 (Cu-GGH-lisinopril): 250 M⁻¹ s⁻¹ | second order rate constant for cleavage of full length sACE-1 (SDS-PAGE), ascorbate (Cu-GGH-lisinopril): < 100 M⁻¹ s⁻¹ | second order rate constant for cleavage of full length sACE-1 (SDS-PAGE), ascorbate + H2O2 (Cu-GGH-lisinopril): 1170 M⁻¹ s⁻¹ | second order rate constant for cleavage of full length sACE-1 (SDS-PAGE), ascorbate + H2O2 ([Cu-GGH]^1-): < 50 M⁻¹ s⁻¹ | second order rate constant for cleavage of full length sACE-1 (SDS-PAGE), ascorbate (Ni-GGH-lisinopril): < 1000 M⁻¹ s⁻¹ | second order rate constant for cleavage of full length sACE-1 (SDS-PAGE), ascorbate + H2O2 (Co-GGH-lisinopril): < 1170 M⁻¹ s⁻¹

B7: Cu-GGHLPET (SEQ ID NO: 102) (peptide)
peptide: GGHLPET
modifications: not checked
activity for catalyst concentration of 1 µM [1]: 0.009
